Results: the RNAGym collection of RNA variant scans (doi:10.7554/elife.80360)

B1: CPEB3 Ribozyme (parent)
chain: GGGGGCCACAGCAGAAGCGUUCACGUCGCGGCCCCUGUCAGAUUCUGGUGAAUCUGCGAAUUCUGCUGU

Variants of: B1
Assay: self-cleavage, relative activity (ratio to wild type); higher = more cleavage; co-transcriptional

| Variant | self-cleavage |
| --- | --- |
| C32G C63A | 0.3 |
| C33A C54G | 0.301 |
| C33A C54A | 0.326 |
| C33A C54U | 0.723 |
| C32G G37U | 0.149 |
| C32G G37C | 0.184 |
| C32G G37A | 0.195 |
| C33G A40C | 0.324 |
| C33G A40U | 0.273 |
| C32A U44G | 0.469 |
| C32A U44A | 0.357 |
| C32U C33U | 0.861 |
| C32U C33A | 0.593 |
| C32G U62A | 0.26 |
| C32G U62G | 0.271 |
| C32G U62C | 0.306 |
| C33U C39A | 0.866 |
| C32A U36A | 0.275 |
| C32A U36C | 0.593 |
| C33A U55G | 0.319 |
| C33A U55C | 0.438 |
| C33A U55A | 0.486 |
| C33A C45U | 0.799 |
| C32G U36G | 0.191 |

| Variant | self-cleavage |
| --- | --- |
| C33A U44C | 0.656 |
| C33A U44G | 0.374 |
| C33A U44A | 0.313 |
| C33A A51G | 0.7 |
| C33A A51C | 0.366 |
| C33A A51U | 0.46 |
| C32A U61G | 0.421 |
| C32A U61A | 0.406 |
| C32A U61C | 0.365 |
| C33G C57U | 0.316 |
| C33G C57G | 0.259 |
| C33G C57A | 0.38 |
| C32U C66G | 0.923 |
| C32U C66A | 0.893 |
| C32U C66U | 1 |
| C33G G47U | 0.682 |
| C33G G47C | 0.638 |
| C33G G47A | 0.663 |
| C33G G50U | 0.578 |
| C33G G50A | 0.687 |
| C33G G50C | 0.661 |
| C33U G41U | 0.821 |
| C33U G41C | 0.728 |
| C32A U43C | 0.441 |

| Variant | self-cleavage |
| --- | --- |
| C32A U43A | 0.345 |
| C32U A42U | 0.933 |
| C32U A42G | 0.914 |
| C32U A42C | 0.961 |
| C33A U38G | 0.212 |
| C33A G68U | 0.904 |
| C33A G68A | 0.951 |
| C32A U67A | 0.956 |
| C32A U67C | 0.882 |
| C32A U67G | 0.936 |
| C32G C54G | 0.335 |
| C32G C54A | 0.356 |
| C32G A60G | 0.267 |
| C33G U38A | 0.582 |
| C33U G47C | 0.969 |
| C33U G47A | 0.972 |
| C33U G47U | 0.985 |
| C32G C66G | 0.227 |
| C33G C35A | 0.304 |
| C33G C35G | 0.318 |
| C33U G37A | 0.265 |
| C33U G37C | 0.242 |
| C33G U61G | 0.193 |
| C33G U61C | 0.341 |

| Variant | self-cleavage |
| --- | --- |
| C33G U61A | 0.317 |
| C32U G37U | 0.292 |
| C32G C57G | 0.263 |
| C33A U53A | 0.392 |
| C33A U53C | 0.48 |
| C33A U53G | 0.346 |
| C33G C63G | 0.384 |
| C33G C63U | 0.632 |
| C32G G48A | 0.62 |
| C32G G48U | 0.562 |
| C32U G65C | 0.778 |
| C32U G65A | 0.988 |
| C33U C57U | 0.345 |
| C32G A40C | 0.308 |
| C32G A40U | 0.281 |
| C32G A40G | 0.442 |
| C33G C39U | 0.337 |
| C33G C39G | 0.513 |
| C33G C39A | 0.387 |
| C32A U55G | 0.451 |
| C32A U55A | 0.622 |
| C32A U55C | 0.393 |
| C33G A42U | 0.556 |
| C33A A60G | 0.378 |

| Variant | self-cleavage |
| --- | --- |
| C33A A60U | 0.38 |
| C32G A59U | 0.206 |
| C32G A59G | 0.586 |
| C32U U43G | 0.963 |
| C32U U43C | 0.947 |
| C32U U43A | 0.933 |
| C32G C45G | 0.434 |
| C33A U64A | 0.847 |
| C33A U64G | 0.672 |
| C33A U64C | 0.798 |
| C33A A59C | 0.322 |
| C33A G47C | 0.946 |
| C33A G47A | 0.925 |
| C33G C45U | 0.641 |
| C33G C45A | 0.47 |
| C33G C45G | 0.537 |
| C33U C66G | 0.921 |
| C32U G50A | 0.995 |
| C32U G50U | 0.978 |
| C32U A60G | 0.906 |
| C32G U67A | 0.525 |
| C32G U67C | 0.536 |
| C32G U67G | 0.584 |
| C33U C34U | 0.825 |

| Variant | self-cleavage |
| --- | --- |
| C33U C34A | 0.413 |
| C33A C66A | 0.76 |
| C33A C66G | 0.665 |
| C33A C66U | 0.901 |
| C33A C57A | 0.345 |
| C33A C57G | 0.263 |
| C33A U61A | 0.599 |
| C33A U61C | 0.45 |
| C33G U46C | 0.783 |
| C33G U46G | 0.604 |
| C32U C57U | 0.327 |
| C32U C57G | 0.335 |
| C32G A51U | 0.419 |
| C32G A51C | 0.353 |
| C33U C35G | 0.396 |
| C33U C35U | 0.884 |
| C33A G48C | 0.898 |
| C33A G48U | 0.929 |
| C33G G58C | 0.703 |
| C33G G58U | 0.821 |
| C32G C33G | 0.179 |
| C32G C33A | 0.309 |
| C32G C33U | 0.287 |
| C33A U62A | 0.566 |

| Variant | self-cleavage |
| --- | --- |
| C32U G68A | 0.977 |
| C32U G68U | 1.02 |
| C32U G68C | 1.02 |
| C33G G56C | 0.326 |
| C33G G68A | 0.922 |
| C32G G47A | 0.673 |
| C32G G47C | 0.683 |
| C32U U46C | 1 |
| C32U U46A | 1 |
| C32U U46G | 0.951 |
| C32G U43A | 0.238 |
| C32G U43G | 0.331 |
| C32G U43C | 0.364 |
| C33G G65U | 0.376 |
| C33G G65C | 0.424 |
| C33G G65A | 0.511 |
| C32U U53A | 0.982 |
| C32U U53G | 0.967 |
| C32U C39U | 0.937 |
| C32A G68U | 1.01 |
| C32U U64G | 1.01 |
| C33A G37A | 0.26 |
| C33A G37U | 0.12 |
